In US7943337B2, “Method for screening a protease” (Asahi Kasei Pharma Corporation, priority 2003, dated 2011):

How the values were obtained:
Format in all cases: biochemical
[1] = pH dependency of activity of ketoamine oxidase
Experimental: (§1) 20 μl of an enzyme solution was added to 200 μl of a reaction solution (50 mM buffer, 0.1% Triton X-100, 0.03% 4-aminoantipyrine, 0.02% TOOS, 5 U/ml peroxidase, 2 mM substrate). The whole was incubated at 37° C. for 5 minutes and then 500 μl of 0.5% SDS was added thereto followed by determining absorbance at 555 nm. Tris-HCl (pH 7.5, 8.0, 8.5), PIPES (pH 6.0, 6.5, 7.0), and Bistris-HCl (pH 5.0, 5.5, 6.0, 6.5) were used as the buffers for determination. Also, absorbance was determined using a reaction solution containing no substrates. Differences in the absorbance when FVH and FZK each were used as a substrate and concentrations of the enzyme in the enzyme solution to be used are described in Table 18.

[2] = Substrate specificity of ketoamine oxidases; details: for absorbance difference (A1 − Ab): pH 7.5, 37° C., 5 minutes, 555 nm; for relative activity: FVH = 100 (FOD2: FZK = 100)
Experimental: (§2) Determination was performed by the same method described in <Reference Example: Substrate Specificity of Ketoamine Oxidase derived from Curvularia clavata YH923 (FERM BP-10009), Ketoamine Oxidase derived from Neocosmospora vasinfecta 474, and Ketoamine Oxidase derived from Fusarium oxysporum (manufactured by Asahi Kasei Pharma)>.

[3] = Specificity of mutant ketoamine oxidase to various substrates; details: Table 17; FVH = 100
Experimental: 100 μl of a preliminary sterilized expression medium (a medium containing 3% of sorbitol, 1.5% of polypeptone, 1.5% of yeast extract, and 50 μg/ml of ampicillin and adjusted to pH 7.0) was added to a 96-well microplate. Grown transformants were inoculated thereto and cultured overnight at 30° C. After the termination of the culture, each 5 μl of the culture solution was dispensed into two wells of a 96-well plate and 50 μl of a determination reagent (a 50 mM Tris-HCl buffer (pH 7.5) containing 1 mM FVH or FZK, 0.02% TOOS, 0.02% 4-aminoantipyrine and 10 U/ml peroxidase) was added to each well, and a reaction was carried out at 30° C. for 10-60 minutes. 150 μl of 0.5% SDS was added thereto to terminate the reaction and absorbance was determined at 550 nm using a Microreader (model 450, manufactured by Bio-Rad). From the constructed mutant library, a recombinant which produces ketoamine oxidase that act on FVH but has a decreased activity on FZK was selected. As a result of the screening, 923-F1 and 923-F2 were obtained as favorable mutant strains. Ketoamine oxidase genes harbored by those mutant strains were sequenced and resulted that mutations were introduced in the bases indicated by Table 15.
Note that, concentration of each substrate was set to be 1 mM and other reaction conditions were set according to the activity determination method described in <Screening of Mutant Ketoamine Oxidase having Decreased Action on FZK>.
Ketoamine oxidase derived from Neocosmospora vasinfecta 474 (FOD474) has high homology to ketoamine oxidases containing FOD923 and its amino acid sequence at an N-terminal region containing 158 of FOD923 is highly conserved as shown in FIG. 1. Using pPOSFOD474, FOD474 mutant strain 474-F1 in which 158 of FOD474 is substituted by a different amino acid (threonine) was acquired. […] 58 is a site that strongly affect on the specificity to FVH even in a case of a ketoamine oxidase derived from other microorganism species.

[4] = Substrate specificity of ketoamine oxidases; details: for absorbance difference (A1 − Ab): pH 7.5, 37° C., 5 minutes, 555 nm; for relative activity: FVH = 100 (FOD2: FZK = 100); remark: listed apart in the source
Experimental: The phrase “reactivity of a ketoamine oxidase to ε-1-deoxyfructosyl-(α-benzyloxycarbonyl-L-lysine) (hereinafter also referred to as FZK) is 5% or less compared with that to 1-deoxyfructosyl-L-valyl-L-histidine (hereinafter also referred to as FVH)” refers to the fact that the rate of the reactivity is 5% or less, which is determined by the following steps: adding 20 μl of a ketoamine oxidase solution to 200 μl of a reaction solution (50 mM Tris-HCl buffer (pH 7.5), 0.1% Triton X-100, 0.03% 4-aminoantipyrine, 0.02% TOOS, 5 U/ml peroxidase, and 2 mM FZK or FVH); allowing the mixture to react at 37° C. for 5 minutes; adding 0.5 ml of 0.5% SDS; determining an absorbance at 555 nm (A1); performing the same operations using a reaction solution containing no FZK and FVH to determine an absorbance (Ab); and determining the reactivity from the difference (A1−Ab).
as §2

[5] = pH dependency of specific activity (FZK/FVH)
Experimental: as §1

[6] = Reaction for releasing fructosyl valine from FVHL by angiotensin-converting enzyme; details: 20 U/ml enzyme solution, 2 mM FVHL, 37° C., 1 hour; 730 nm
Experimental: Then, 200 μl of a coloring solution (50 mM Tris-HCl (pH 7.5), 0.1% Triton X-100, 5 U/ml POD, 50 U/ml FOD2, and 0.02 mM DA-64) was added to each resultant, and the mixture was allowed to react at 37° C. for 5 minutes. Thereafter, 500 μl of 0.5% SDS was added to terminate the coloring reaction, and the absorbance at 730 nm was determined. The same reaction was performed except that distilled water was used instead of the 2 mM FVHL solution. Meanwhile, 200 μl of the coloring solution was added to 40 μl of an FV solution (0, 5, 10, 20, or 50 μM), and determination was performed in the same way as above.

B1: FOD474: ketoamine oxidase of Neocosmospora vasinfecta 474 that reacts with FVH, expressed in Escherichia coli (protein, listed as Neocosmospora vasinfecta)
chain: MTTPRKETTVLIIGGGGTIGSSTALHLLRAGYTPSNITVLDTYPIPSAQSAGNDLNKIMGIRLRNKVDLQLSLEARDMWRNDALFRPFFHNTGRLDCESSAEGVEGLRREYQKLVEAGVGLEETHEWLDSEEAILEKAPLLQREEIEGWKAIWSEEGGWLAAAKAINAIGEELQRQGVRFGFGGAGSFKRPLFADDGTTCIGVETVDGTQYHADKVVLAAGAWSPALVDLEEQCCSKAWVYAHMQLTPEEAAVYKGCPVVYHGDVGFFFEPNENGVIKVCDEFPGFTRFKQHQPYGAPAPKPVSVPRSHAKHPTDTYPDASEESIKRAVSTFLPRFKDKPLFNRALCWCTDTADSALLICEHPRWKNFILATGDSGHSFKLLPIIGKHVVELVEGRLADDLAEAWRWRPGQGDARKSIRAAPAKDLADMPGWKHDQDSESR
modifications: CDS (1)..(1323)
notes: ketoamine oxidase of Neocosmospora vasinfecta 474 that reacts with FVH, expressed in Escherichia coli
difference in absorbance, substrate FVH ([1]; Bistris pH 5.0): 0.023
difference in absorbance, substrate FZK ([1]; Bistris pH 5.0): 0.012
difference in absorbance, substrate FVH ([1]; Bistris pH 5.5): 0.084
difference in absorbance, substrate FZK ([1]; Bistris pH 5.5): 0.022
difference in absorbance, substrate FVH ([1]; Bistris pH 6.0): 0.187
difference in absorbance, substrate FZK ([1]; Bistris pH 6.0): 0.042
difference in absorbance, substrate FVH ([1]; Bistris pH 6.5): 0.273
difference in absorbance, substrate FZK ([1]; Bistris pH 6.5): 0.063
difference in absorbance, substrate FVH ([1]; PIPES pH 6.0): 0.265
difference in absorbance, substrate FZK ([1]; PIPES pH 6.0): 0.066
difference in absorbance, substrate FVH ([1]; PIPES pH 6.5): 0.303
difference in absorbance, substrate FZK ([1]; PIPES pH 6.5): 0.093
difference in absorbance, substrate FVH ([1]; PIPES pH 7.0): 0.243
difference in absorbance, substrate FZK ([1]; PIPES pH 7.0): 0.132
difference in absorbance, substrate FVH ([1]; Tris pH 7.5): 0.163
difference in absorbance, substrate FZK ([1]; Tris pH 7.5): 0.162
difference in absorbance, substrate FVH ([1]; Tris pH 8.0): 0.104
difference in absorbance, substrate FZK ([1]; Tris pH 8.0): 0.200
difference in absorbance, substrate FVH ([1]; Tris pH 8.5): 0.063
difference in absorbance, substrate FZK ([1]; Tris pH 8.5): 0.210
absorbance difference (A1 − Ab) ([2]; 2 mM FV): 0.289
absorbance difference (A1 − Ab) ([2]; 2 mM FVHL): 0.002
absorbance difference (A1 − Ab) ([2]; 2 mM FVHLT): 0.002
absorbance difference (A1 − Ab) ([2]; 2 mM FVL): 0.059
absorbance difference (A1 − Ab) ([2]; 2 mM α-glycated pentapeptide): 0.003
absorbance difference (A1 − Ab) ([2]; 2 mM β-glycated pentapeptide): 0.002
relative activity ([2]; substrate FV): 445%
relative activity ([2]; substrate FVHL): 0%
relative activity ([2]; substrate FVHLT): 0%
relative activity ([2]; substrate FVL): 0.91%
relative activity ([2]; substrate α-glycated pentapeptide): 0%
relative activity ([2]; substrate β-glycated pentapeptide): 0%
specificity, substrate FV [3]: 540
specificity, substrate FVH [3]: 100
specificity, substrate FZK [3]: 40
absorbance difference (A1 − Ab) ([4]; 2 mM FVH): 0.221
absorbance difference (A1 − Ab) ([4]; 2 mM FZK): 0.032
relative activity ([4]; substrate FVH): 100%
relative activity ([4]; substrate FZK): 15%
specific activity (FZK/FVH) ([5]; Bistris pH 5.0): 10.4%
specific activity (FZK/FVH) ([5]; Bistris pH 5.5): 5.2%
specific activity (FZK/FVH) ([5]; Bistris pH 6.0): 4.9%
specific activity (FZK/FVH) ([5]; Bistris pH 6.5): 4.6%
specific activity (FZK/FVH) ([5]; PIPES pH 6.0): 5.0%
specific activity (FZK/FVH) ([5]; PIPES pH 6.5): 6.1%
specific activity (FZK/FVH) ([5]; PIPES pH 7.0): 10.9%
specific activity (FZK/FVH) ([5]; Tris pH 7.5): 19.9%
specific activity (FZK/FVH) ([5]; Tris pH 8.0): 38.5%
specific activity (FZK/FVH) ([5]; Tris pH 8.5): 66.7%

B2: ACEP: angiotensin-converting enzyme derived from porcine kidney (manufactured by Sigma Corporation) (protein, UniProt F1RRW5 34-1309, looked up)
Angiotensin-converting enzyme: LDSALQPGNFTADEAGAEDFAQSFNSSSEQVLFQSTAASWAHDTNITEENARRQEEAALISQEFSEVWGQKAKALYDPIWQNFTSRTLRRIIGVVRTLGSANLSPAKRQQYNSLLSNMTRIYSTAKVCFPNKTATCWSLDPELTNILATSRSYTLLLYAWEGWHNAAGIPLKPLYQDFTALSNEAYKQDGFSDTGAYWRSLYDSPTFTEDLERLYHQLEPLYLNLHAYVRRALHRQYGDRFINLRGPIPAHLLGNMWAQSWNNIYDMVVPFPGKPSLDVTSAMVQKGWNVTHMFRVAEEFFTSLGLLPMPPEFWAESMLEKPSDGREVVCHASAWDFYNRKDFRIKQCTQVTMDQLSTVHHEMGHVQYYLQYKDQHVSLRRGANPGFHEAIGDVLALSVSTPAHLHKIGLLDHVTSDWESDINYLLKMALEKIAFLPFGYLVDQWRWGVFSGRTPPLYNYDWWYLRTKYQGVCPPVVRNETHFDAGAKYHVPNVTPYIRYFVSFILQFQFHQALCKEAGHQGPLHQCDIYQSTRAGAKLRAVLQAGSSRPWQEVLKDMVGSGALDAQPLLDYFQPVTQWLEEQNQRSGDILGWPEYQWRPPMPDNYPEGIDLVSDEAEASKFVEEYDRRSQVVLNEYAEANWDYNTNITAEGSKRVLEKSTQMANHTVKYGIWARKFDVANIQNFTLKRMIKKIQDLERAALPFKELEEYNQILLDMETAYSVASVCHANSTCLQLEPDLTNLMATSRSYEELLWAWKGWRDKVGRAILPYFPKYVELTNKAARLNGYEDGGDAWRAAYEMPFLEQELEQLFQELQPLYLNLHAYVRRALHHHYGPEHINLEGPIPAHLLGNMWAQTWSNIYDLVVPFPSASKMDASEAMINQGWTPQRMFKEADNFFTSLGLLPVPPEFWNKSMLEKPTDGREVVCHASAWDFFNGKDFRIKQCTTVNMEDLVVAHHEMGHIQYFMQYKDLPVTFREGANPGFHEAIGDVLALSVSTPKHLRSINLLKSEDDGYEEDINFLMKMALDKVAFVPFSYLVDQWRWRVFDRSITKENYNQEWWSLRLKYQGLCPPVARSQGDFDPGAKFHIPSSVPYIRYFVSFIIQFQFHEALCQAAGHKGPLHKCDIYQSKEAGRRLADAMKLGLSKPWPEAMQLITGQPNVSASAMMTYFKPLLDWLVTENGRHGEKLGWPQYNWTPNSARLEGSFAGTGRVNFLGLNLEEQQARVGQWVLLFLGVTLLVATMGLTQRLFSIRHQILRRTHRGPQFGSEVELRHS
absorbance difference showing FV released [6]: −0.006
